According to patent US20230183339A1:

Target: FcRn
Experiment: BIAcore at pH 6.0

| Substance | Kd [µM] |
| --- | --- |
| wild-type irrelevant IgG4 (antibody) | 3.64 |
| wild-type irrelevant IgG1 (antibody) | 1.64 |
